Source: patent US20240034757A1 (OXFORD UNIVERSITY INNOVATION, published 2024)
Where a chain is given by its changes, count along the chain named.

T1: CXCL1_HUMAN (human, UniProt P09341 35-107)
T1 sequence: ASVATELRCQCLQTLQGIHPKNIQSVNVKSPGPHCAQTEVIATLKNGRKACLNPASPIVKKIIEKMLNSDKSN

T2: P1183_AMBTR (Amblyomma triste, UniProt A0A023G9N9 26-115)
T2 sequence: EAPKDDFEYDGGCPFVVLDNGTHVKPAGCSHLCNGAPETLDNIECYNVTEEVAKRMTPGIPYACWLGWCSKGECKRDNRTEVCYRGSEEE

T3: P985_AMBPA (Amblyomma parvum, UniProt A0A023FT45 25-132)
T3 sequence: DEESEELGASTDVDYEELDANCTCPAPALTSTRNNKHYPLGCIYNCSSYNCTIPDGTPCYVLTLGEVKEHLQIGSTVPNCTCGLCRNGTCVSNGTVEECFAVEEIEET

T4: P546_AMBCA (Amblyomma cajennense, UniProt A0A023FBW7 22-118)
T4 sequence: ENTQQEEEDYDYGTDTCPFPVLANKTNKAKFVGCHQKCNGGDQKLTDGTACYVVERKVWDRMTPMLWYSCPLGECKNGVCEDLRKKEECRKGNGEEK

T5: P1182_AMBMA (Amblyomma maculatum, UniProt G3MJ83 27-115)
T5 sequence: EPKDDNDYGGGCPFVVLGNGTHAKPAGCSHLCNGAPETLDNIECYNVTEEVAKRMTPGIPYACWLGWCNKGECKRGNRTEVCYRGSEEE

T6: P1243_AMBAM (Amblyomma americanum, UniProt A0A0C9S461 26-123)
T6 sequence: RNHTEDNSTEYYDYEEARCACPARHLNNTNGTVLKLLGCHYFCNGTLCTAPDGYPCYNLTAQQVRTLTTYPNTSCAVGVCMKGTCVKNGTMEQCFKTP

T7: P1181_AMBMA (Amblyomma maculatum, UniProt G3MIX6 26-115)
T7 sequence: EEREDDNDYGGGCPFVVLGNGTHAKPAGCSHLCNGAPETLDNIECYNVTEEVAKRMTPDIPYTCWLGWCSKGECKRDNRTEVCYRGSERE

T8: P672_RHIPU (Rhipicephalus pulchellus, UniProt L7MC74 22-125)
T8 sequence: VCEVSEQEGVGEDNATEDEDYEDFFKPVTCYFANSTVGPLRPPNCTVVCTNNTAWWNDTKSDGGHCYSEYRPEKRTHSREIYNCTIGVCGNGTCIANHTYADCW

T9: P983_AMBCA (Amblyomma cajennense, UniProt A0A023FFB5 22-119)
T9 sequence: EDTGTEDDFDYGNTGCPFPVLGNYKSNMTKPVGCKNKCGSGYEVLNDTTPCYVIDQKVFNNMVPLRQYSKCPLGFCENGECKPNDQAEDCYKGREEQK

T10: P1180_AMBTR (Amblyomma triste, UniProt A0A023G6B6 26-116)
T10 sequence: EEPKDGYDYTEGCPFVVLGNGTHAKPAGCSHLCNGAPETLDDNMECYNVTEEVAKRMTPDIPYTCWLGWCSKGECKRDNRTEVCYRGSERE

T11: P974_AMBCA (Amblyomma cajennense, UniProt A0A023FDY8 22-118)
T11 sequence: T4 sequence with E8Q, S69E, E88D

T12: P467_RHIPU (Rhipicephalus pulchellus, UniProt L7M8Z8 22-127)
T12 sequence: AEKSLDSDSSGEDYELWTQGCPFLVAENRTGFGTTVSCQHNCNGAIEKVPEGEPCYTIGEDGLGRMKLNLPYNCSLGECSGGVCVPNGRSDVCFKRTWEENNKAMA

T13: P991_AMBCA (Amblyomma cajennense, UniProt A0A023FFD0 29-136)
T13 sequence: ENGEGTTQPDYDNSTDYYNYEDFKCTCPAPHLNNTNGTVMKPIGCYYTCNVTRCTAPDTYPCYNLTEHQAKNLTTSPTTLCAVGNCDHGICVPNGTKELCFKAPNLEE

T14: CXCL11_HUMAN (human, UniProt O14625 22-94)
T14 sequence: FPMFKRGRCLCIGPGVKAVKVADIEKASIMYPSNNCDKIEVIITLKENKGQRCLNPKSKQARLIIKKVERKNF

T15: CXCL9_HUMAN (human, UniProt Q07325 23-125)
T15 sequence: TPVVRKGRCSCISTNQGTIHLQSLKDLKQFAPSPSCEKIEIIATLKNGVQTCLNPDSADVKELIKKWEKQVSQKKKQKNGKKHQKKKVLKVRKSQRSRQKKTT

T16: CXCL14_HUMAN (human, UniProt O95715 35-111)
T16 sequence: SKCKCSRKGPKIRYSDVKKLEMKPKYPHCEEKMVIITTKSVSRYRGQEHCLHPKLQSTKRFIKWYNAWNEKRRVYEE

T17: CXCL10_HUMAN (human, UniProt P02778 22-98)
T17 sequence: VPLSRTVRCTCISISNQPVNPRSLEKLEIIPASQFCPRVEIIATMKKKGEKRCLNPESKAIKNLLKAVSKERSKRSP

T18: CXCL13_HUMAN (human, UniProt O43927 23-109)
T18 sequence: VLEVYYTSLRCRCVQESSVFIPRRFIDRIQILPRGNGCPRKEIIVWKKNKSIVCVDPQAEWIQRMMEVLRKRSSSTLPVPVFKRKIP

T19: CXCL8_HUMAN (human, UniProt P10145 28-99)
T19 sequence: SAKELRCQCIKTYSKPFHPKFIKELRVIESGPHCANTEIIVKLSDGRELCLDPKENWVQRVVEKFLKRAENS

T20: CXCL6_HUMAN (human, UniProt P80162 38-114)
T20 sequence: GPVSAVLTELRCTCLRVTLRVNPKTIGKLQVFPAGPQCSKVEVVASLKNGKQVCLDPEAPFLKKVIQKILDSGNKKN

T21: CXCL4_HUMAN (human, UniProt P02776 32-101)
T21 sequence: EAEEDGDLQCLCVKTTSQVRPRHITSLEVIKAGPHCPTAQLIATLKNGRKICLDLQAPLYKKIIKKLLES

T22: CXCL7_HUMAN (human, UniProt P02775 59-128)
T22 sequence: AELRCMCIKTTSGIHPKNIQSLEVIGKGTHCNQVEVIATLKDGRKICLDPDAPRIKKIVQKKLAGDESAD

B1: P1229_IXORI (other)
chain: DDEFFTVDYCGMNCTLQQDGSWTPCTQKNAECKCYHESGSSVGLCLSTAYTDFNQFGDPNNSDLDAATPRHPDASSR
B2: P1077_IXORI (other)
chain: GSKQLIGPQSSTNSIKAEFCDTNCTAGTNGIWNGCSGDCFCTHVGNSTEGRCMKITGFDEYPTSEAEE
B3: P1162_IXORI (other)
chain: LNDEELFTVDYCGTNCTQQPNGSWTTCPGNCSCYHEDGKTDGFCLSTEYTDFTQFPNLTSEEMDAATPRPE
B4: P1104_IXORI (other)
chain: ESKEASASQGPGKSFKVEFCETNCTENNGVWSGCTGDCICVSVGDSKEGRCMDLGDKVIDTPVAQG
B5: CCL4L1_HUMAN (ligand)
chain: APMGSDPPTACCFSYTARKLPRNFVVDYYETSSLCSQPAVVFQTKRGKQVCADPSESWVQEYVYDLELN
B6: CCL4_HUMAN (ligand)
chain: B5 chain with G47S
B7: CCL11_HUMAN (ligand)
chain: not shown
B8: CCL3_HUMAN (ligand)
chain: SLAADTPTACCFSYTSRQIPQNFIADYFETSSQCSKPGVIFLTKRSRQVCADPSEEWVQKYVSDLELSA
B9: CCL16_HUMAN (ligand)
chain: QPKVPEWVNTPSTCCLKYYEKVLPRRLVVGYRKALNCHLPAIIFVTKRNREVCTNPNDDWVQEYIKDPNLPLLPTRNLSTVKIITAKNGQPQLLNSQ
B10: CCL15_HUMAN (ligand)
chain: QFTNDAETELMMSKLPLENPVVLNSFHFAADCCTSYISQSIPCSLMKSYFETSSECSKPGVIFLTKKGRQVCAKPSGPGVQDCMKKLKPYSI

Each binder was assayed against T1, CXCL1_HUMAN (assay: yeast surface display FACS re-test; note: test concentration or dose not given here).

Binder	% cells over threshold fluorescence [%]
B1	66
B2	50
B3	72
B4	65

What follows are binders tested against T2, P1183_AMBTR (assay: BLI).

Binder	Kd [nM]
B5	48
B6	78
B7	8.5

The binders below were run against T3, P985_AMBPA (assay: BLI).

Binder	Kd [nM]
B8	8.9
B5	21
B6	46
B9	45
B7	8

What follows are binders tested against T4, P546_AMBCA (assay: BLI).

Binder	Kd [nM]
B8	15
B5	8.9
B6	27
B7	8.7

What follows are binders tested against T5, P1182_AMBMA (assay: BLI).

Binder	Kd [nM]
B8	5.4
B5	92
B6	63
B7	28

Each binder was assayed against T6, P1243_AMBAM (assay: BLI).

Binder	Kd [nM]
B8	5.3
B5	35.4
B6	15.3
B9	0.926
B7	6.03
B10	9.61

The binders below were run against T7, P1181_AMBMA (assay: BLI).

Binder	Kd [nM]
B8	2.2
B5	35
B6	53
B7	20

Each binder was assayed against T8, P672_RHIPU (assay: BLI).

Binder	Kd [nM]
B8	2.6
B9	3.3
B10	32

What follows are binders tested against T9, P983_AMBCA (assay: BLI).

Binder	Kd [nM]
B8	3.5
B5	2.9
B6	8
B7	21

Each binder was assayed against T10, P1180_AMBTR (assay: BLI).

Binder	Kd [nM]
B8	1.1
B5	20
B6	66
B7	33

What follows are binders tested against T11, P974_AMBCA (assay: BLI).

Binder	Kd [nM]
B8	7.97
B5	23.2
B6	30.2
B7	17

The binders below were run against T12, P467_RHIPU (assay: BLI).

Binder	Kd [nM]
B8	0.363
B5	4.72
B6	13.6
B9	14.1
B7	1.4

These binders were tested against T13, P991_AMBCA (assay: BLI).

Binder	Kd [nM]
B8	1.08
B5	0.827
B6	5.82
B9	1.28
B7	3.43
B10	159

Molecular target: T6, P1243_AMBAM
Test: BLI
Remark: another data set of the same source

Binder	Kd [nM]
B8	5.3
B5	35.4
B6	15.3
B9	0.925
B10	9.61

These binders were tested against T14, CXCL11_HUMAN (assay: BLI).

Binder	binding result
B3	no binding (tested: 300 nM)
B4	no binding (tested: 300 nM)

These binders were tested against T15, CXCL9_HUMAN (assay: BLI).

Binder	binding result
B1	no binding (tested: 300 nM)
B2	no binding (tested: 300 nM)
B3	no binding (tested: 300 nM)
B4	no binding (tested: 300 nM)

These binders were tested against T16, CXCL14_HUMAN (assay: BLI).

Binder	binding result
B1	no binding (tested: 300 nM)
B2	no binding (tested: 300 nM)
B3	no binding (tested: 300 nM)
B4	no binding (tested: 300 nM)

Each binder was assayed against T17, CXCL10_HUMAN (assay: BLI).

Binder	binding result
B1	no binding (tested: 300 nM)
B2	no binding (tested: 300 nM)
B3	no binding (tested: 300 nM)
B4	no binding (tested: 300 nM)

Each binder was assayed against CXCL12_HUMAN (human, UniProt P48061 22-89) (assay: BLI).
CXCL12_HUMAN, sequence (P48061 22-89 limits assumed): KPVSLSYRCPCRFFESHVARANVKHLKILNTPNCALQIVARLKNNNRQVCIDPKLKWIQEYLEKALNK

Binder	binding result	Kd [nM]
B1	no binding (tested: 300 nM)	
B2	no binding (tested: 300 nM)	
B3	no binding (tested: 300 nM)	
B4		67.8

The binders below were run against T18, CXCL13_HUMAN (assay: BLI).

Binder	binding result	Kd [nM]
B1	no binding (tested: 300 nM)	
B2	no binding (tested: 300 nM)	
B3	no binding (tested: 300 nM)	
B4		220

Each binder was assayed against T19, CXCL8_HUMAN (assay: BLI [Cont.]).

Binder	binding result
B2	no binding (tested: 300 nM)
B4	no binding (tested: 300 nM)

What follows are binders tested against T20, CXCL6_HUMAN (assay: BLI [Cont.]).

Binder	binding result
B1	no binding (tested: 300 nM)
B3	no binding (tested: 300 nM)

These binders were tested against T21, CXCL4_HUMAN (assay: BLI [Cont.]).

Binder	binding result
B2	no binding (tested: 300 nM)
B4	no binding (tested: 300 nM)

These binders were tested against T22, CXCL7_HUMAN (assay: BLI [Cont.]).

Binder	binding result
B2	no binding (tested: 300 nM)
B4	no binding (tested: 300 nM)
